Source: PMC10658506 (2023)

B1: yeast-displayed wild-type human IL-11 [human] / soluble human IL-11 receptor extracellular domain, his-tagged [human] (parent complex)
chain 1: PGPPPGPPRVSPDPRAELDSTVLLTRSLLADTRQLAAQLRDKFPADGDHNLDSLPTLAMSAGALGALQLPGVLTRLRADLLSYLRHVQWLRRAGGSSLKTLEPELGTLQARLDRLLRRLQLLMSRLALPQPPPDPPAPPLAPPSSAWGGIRAAHAILGGLHLTLDWAVRGLLLLKTRL
chain 2: SPCPQAWGPPGVQYGQPGRSVKLCCPGVTAGDPVSWFRDGEPKLLQGPDSGLGHELVLAQADSTDEGTYICQTLDGALGGTVTLQLGYPPARPVVSCQAADYENFSCTWSPSQISGLPTRYLTSYRKKTVLGADSQRRSPSTGPWPCPQDPLGAARCVVHGAEFWSQYRINVTEVNPLGASTRLLDVSLQSILRPDPPQGLRVESVPGYPRRLRASWTYPASWPCQPHFLLKFRLQYRPAQHPAWSTVEPAGLEEVITDAVAGLPHAVRVSARDFLDAGTWSTWSPEAWGTPSTGTIPKEIPAWGQLHTQPEVEPQVDSPAPPRPSLQPHPRLLDHRDSVEQVAVLA

Variants of: B1
Experiment: yeast display titration (flow cytometry); parent: 8.2 nM

Variant	Kd
chain 1 PGPPPGPPRVSPDPRAELGSIVLLTRSLLADTRQLAAQLRDKFPADGDHNLDSLPTPAMSARALGALQLPDVLTRLRADLLSYLRHVQWLRRAGGSSLKTLEPELGTLQARLDRLLRRLQLLMSRLALPQPPPDPPAPPLAPPSSAWGGIRAAHAILGGLHLTLDWAVRGLLLLKTRL [chain 1 D19G, chain 1 T21I, chain 1 L57P, chain 1 G62R, chain 1 G71D]	0.19 nM
chain 1 PGPPPGPPRVSPDPRAELDSIVLLTRSLLADTRQLAAQLRDKFPADGDHNLDSLPTPAMSARALGALQLPGVLTRLRADLLSYLRHVQWLRRAGGSSLKTLEPELGTLQARLDRLLRRLQLLMSRLALPQPPPDPPAPPLAPPSSAWGGIRAAHAILGGLHLTLDWAVRGLLLLKTRL [chain 1 T21I, chain 1 L57P, chain 1 G62R]	0.22 nM
chain 1 PGPPPGPPRVSPDPRAELDSTVLLTRSLLADTRQLAAQLRDKFPADGDHNLDSLPTPAMSARALGALQLPGVLTRLRADLLSYLRHVQWLRRAGGSSLKTLEPELGTLQARLDRLLRRLQLLMSRLALPQPPPDPPAPPLAPPSSAWGGIRAAHAILGGLHLTLDWAVRGLLLLKTRL [chain 1 L57P, chain 1 G62R]	0.42 nM
